Biological target: WD repeat domain 5 (WDR5), human, endogenous in human mesenchymal stem cells (human, UniProt P61964 2-334)
Assay: Co-IP with HA antibody, stem cells from apical papilla overexpressing HA-KDM6B
Method: On the next day, the cells were added with Protein A/G beads and rotated on a rotary shaker at 4° C. for 2 hours. […] All cells were incubated overnight to form a complex of protein-antibody-agarose bead. […] (2) Grouping: Input group (loading amount of 25 μg); antibody group (loading amount of 800 μg, 2 μg of antibody); IgG group (loading amount of 800 μg, 2 μg of antibody). Samples were diluted with lysate. […] (3) Preparation of protein A/G beads

- binding result: binds
B1: HA-KDM6B (full-length KDM6B with HA tag, overexpressed in stem cells from apical papilla) (enzyme)
chain: MHRAVDPPGARAAREAFALGGLSCAGAWSSCPPHPPPRSAWLPGGRCSASIGQPPLPAPLPPSHGSSSGHPSKPYYAPGAPTPRPLHGKLESLHGCVQALLREPAQPGLWEQLGQLYESEHDSEEATRCYHSALRYGGSFAELGPRIGRLQQAQLWNFHTGSCQHRAKVLPPLEQVWNLLHLEHKRNYGAKRGGPPVKRAAEPPVVQPVPPAALSGPSGEEGLSPGGKRRRGCNSEQTGLPPGLPLPPPPLPPPPPPPPPPPPPLPGLATSPPFQLTKPGLWSTLHGDAWGPERKGSAPPERQEQRHSLPHPYPYPAPAYTAHPPGHRLVPAAPPGPGPRPPGAESHGCLPATRPPGSDLRESRVQRSRMDSSVSPAATTACVPYAPSRPPGLPGTTTSSSSSSSSNTGLRGVEPNPGIPGADHYQTPALEVSHHGRLGPSAHSSRKPFLGAPAATPHLSLPPGPSSPPPPPCPRLLRPPPPPAWLKGPACRAAREDGEILEELFFGTEGPPRPAPPPLPHREGFLGPPASRFSVGTQDSHTPPTPPTPTTSSSNSNSGSHSSSPAGPVSFPPPPYLARSIDPLPRPPSPAQNPQDPPLVPLTLALPPAPPSSCHQNTSGSFRRPESPRPRVSFPKTPEVGPGPPPGPLSKAPQPVPPGVGELPARGPRLFDFPPTPLEDQFEEPAEFKILPDGLANIMKMLDESIRKEEEQQQHEAGVAPQPPLKEPFASLQSPFPTDTAPTTTAPAVAVTTTTTTTTTTTATQEEEKKPPPALPPPPPLAKFPPPSQPQPPPPPPPSPASLLKSLASVLEGQKYCYRGTGAAVSTRPGPLPTTQYSPGPPSGATALPPTSAAPSAQGSPQPSASSSSQFSTSGGPWARERRAGEEPVPGPMTPTQPPPPLSLPPARSESEVLEEISRACETLVERVGRSATDPADPVDTAEPADSGTERLLPPAQAKEEAGGVAAVSGSCKRRQKEHQKEHRRHRRACKDSVGRRPREGRAKAKAKVPKEKSRRVLGNLDLQSEEIQGREKSRPDLGGASKAKPPTAPAPPSAPAPSAQPTPPSASVPGKKAREEAPGPPGVSRADMLKLRSLSEGPPKELKIRLIKVESGDKETFIASEVEERRLRMADLTISHCAADVVRASRNAKVKGKFRESYLSPAQSVKPKINTEEKLPREKLNPPTPSIYLESKRDAFSPVLLQFCTDPRNPITVIRGLAGSLRLNLGLFSTKTLVEASGEHTVEVRTQVQQPSDENWDLTGTRQIWPCESSRSHTTIAKYAQYQASSFQESLQEEKESEDEESEEPDSTTGTPPSSAPDPKNHHIIKFGTNIDLSDAKRWKPQLQELLKLPAFMRVTSTGNMLSHVGHTILGMNTVQLYMKVPGSRTPGHQENNNFCSVNINIGPGDCEWFAVHEHYWETISAFCDRHGVDYLTGSWWPILDDLYASNIPVYRFVQRPGDLVWINAGTVHWVQATGWCNNIAWNVGPLTAYQYQLALERYEWNEVKNVKSIVPMIHVSWNVARTVKISDPDLFKMIKFCLLQSMKHCQVQRESLVRAGKKIAYQGRVKDEPAYYCNECDVEVFNILFVTSENGSRNTYLVHCEGCARRRSAGLQGVVVLEQYRTEELAQAYDAFTLAPASTSR
notes: whole, on cells; Full-length protein expressed inside human SCAPs and pulled down from lysate with HA antibody; also called PQCXIN-HA-KDM6B; SCAPs-HA-KDM6B; not shown: HA tag
